In article PMC13134850:

Target: RadD adhesin of Fusobacterium nucleatum subsp. nucleatum ATCC 23726 (Fusobacterium nucleatum subsp. nucleatum ATCC 23726 (endogenous on the bacteria))
Experiment: flow cytometry on cells

Molecule | fold increase in binding to ATCC 23726 ∆fad-I [fold]
NKp46 fusion protein (NKp46 Ig) (human) (from UniProt O76036 22-258) (Fc fusion) | 100
Ncr-1 fusion protein (Ncr-1 Ig) (mouse) (Fc fusion) QRINTEKETLPKPIIWAKPSIMVTNGNSVNIWCQGAQSASEYQLYFEGSFFALERPKPSRSMNKVRFFISQMTSHTAGIYTCFYQSGELWSKSSNPLKLVVTGLYDTPNLWVYPRPEVTLGENVTFFCQLKTATSKFFLLKERGSNHIQNKYGNIQAEFPMGPVTRAHRGTYRCFGSYNDYAWSFPSEPVTLLITGGVENSSLAPTDPTSSLDYWEFDLSTNESGLQKDSAFWDHTTQN | 100
